From the supplement of paper PMC10567573

B1: RSPH3 (parent)
chain: KAASLARNLAKRRRTYLGGAAGRS
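Note: lentivirally expressed fusions sorted by FACS into six bins by GFP to DsRed ratio, PSI derived from sequencing read proportions per bin multiplied by bin number.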

Variants of: B1
Test: protein stability index of a GFP-peptide fusion (GPS, HEK-293T) (PSI 1-6); higher = more stable
Conditions: c terminus: a fixed tail appended
KAASLARNLAKQRRTYLGGAAGRS [R12Q] showed a protein stability index of 2.24.
Work on KAASLARNLAKYRRTYLGGAAGRS [R12Y] yielded a protein stability index of 1.18.
For KAASLARNLAKRARTYLGGAAGRS [R13A], the protein stability index was 1.51.
Variant KAASLARNLAKRDRTYLGGAAGRS [R13D] has a protein stability index of 3.58.
KAASLARNLAKRFRTYLGGAAGRS [R13F] gave a protein stability index of 3.92.
KAASLARNLAKRGRTYLGGAAGRS [R13G] gave a protein stability index of 2.11.
KAASLARNLAKRMRTYLGGAAGRS [R13M] showed a protein stability index of 3.77.
In the case of KAASLARNLAKRNRTYLGGAAGRS [R13N], the protein stability index is reported as 3.36.
Variant KAASLARNLAKRSRTYLGGAAGRS [R13S] has a protein stability index of 2.52.
In the case of KAASLARNLAKRTRTYLGGAAGRS [R13T], the protein stability index is reported as 2.4.
KAASLARNLAKRVRTYLGGAAGRS [R13V] showed a protein stability index of 1.92.
With KAASLARNLAKRWRTYLGGAAGRS [R13W] the protein stability index was 2.91.
KAASLARNLAKRRCTYLGGAAGRS [R14C] showed a protein stability index of 2.96.
KAASLARNLAKRRDTYLGGAAGRS [R14D] gave a protein stability index of 1.41.
For KAASLARNLAKRRETYLGGAAGRS [R14E], the protein stability index was 2.66.
KAASLARNLAKRRFTYLGGAAGRS [R14F] gave a protein stability index of 1.02.
In the case of KAASLARNLAKRRGTYLGGAAGRS [R14G], the protein stability index is reported as 1.73.
Variant KAASLARNLAKRRLTYLGGAAGRS [R14L] has a protein stability index of 1.84.
In the case of KAASLARNLAKRRNTYLGGAAGRS [R14N], the protein stability index is reported as 1.99.
In the case of KAASLARNLAKRRQTYLGGAAGRS [R14Q], the protein stability index is reported as 2.57.
Variant KAASLARNLAKRRSTYLGGAAGRS [R14S] has a protein stability index of 3.11.
Variant KAASLARNLAKRRVTYLGGAAGRS [R14V] has a protein stability index of 2.24.
KAASLARNLAKRRRDYLGGAAGRS [T15D] gave a protein stability index of 2.17.
With KAASLARNLAKRRRFYLGGAAGRS [T15F] the protein stability index was 2.31.
KAASLARNLAKRRRHYLGGAAGRS [T15H] gave a protein stability index of 2.09.
Work on KAASLARNLAKRRRMYLGGAAGRS [T15M] yielded a protein stability index of 3.14.
KAASLARNLAKRRRVYLGGAAGRS [T15V] gave a protein stability index of 1.91.
Work on KAASLARNLAKRRRYYLGGAAGRS [T15Y] yielded a protein stability index of 1.29.
Work on KAASLARNLAKRRRTALGGAAGRS [Y16A] yielded a protein stability index of 3.41.
KAASLARNLAKRRRTELGGAAGRS [Y16E] gave a protein stability index of 1.86.
In the case of KAASLARNLAKRRRTFLGGAAGRS [Y16F], the protein stability index is reported as 3.2.
KAASLARNLAKRRRTGLGGAAGRS [Y16G] gave a protein stability index of 3.03.
For KAASLARNLAKRRRTHLGGAAGRS [Y16H], the protein stability index was 3.32.
KAASLARNLAKRRRTKLGGAAGRS [Y16K] gave a protein stability index of 2.49.
KAASLARNLAKRRRTLLGGAAGRS [Y16L] showed a protein stability index of 2.29.
Work on KAASLARNLAKRRRTMLGGAAGRS [Y16M] yielded a protein stability index of 2.26.
For KAASLARNLAKRRRTPLGGAAGRS [Y16P], the protein stability index was 3.04.
In the case of KAASLARNLAKRRRTQLGGAAGRS [Y16Q], the protein stability index is reported as 2.81.
In the case of KAASLARNLAKRRRTVLGGAAGRS [Y16V], the protein stability index is reported as 2.17.
KAASLARNLAKRRRTYEGGAAGRS [L17E] gave a protein stability index of 2.32.
In the case of KAASLARNLAKRRRTYFGGAAGRS [L17F], the protein stability index is reported as 2.05.
KAASLARNLAKRRRTYGGGAAGRS [L17G] gave a protein stability index of 2.66.
For KAASLARNLAKRRRTYHGGAAGRS [L17H], the protein stability index was 3.26.
KAASLARNLAKRRRTYKGGAAGRS [L17K] gave a protein stability index of 4.17.
KAASLARNLAKRRRTYMGGAAGRS [L17M] gave a protein stability index of 2.64.
For KAASLARNLAKRRRTYNGGAAGRS [L17N], the protein stability index was 3.18.
For KAASLARNLAKRRRTYRGGAAGRS [L17R], the protein stability index was 3.44.
For KAASLARNLAKRRRTYSGGAAGRS [L17S], the protein stability index was 2.75.
KAASLARNLAKRRRTYWGGAAGRS [L17W] gave a protein stability index of 1.69.
For KAASLARNLAKRRRTYYGGAAGRS [L17Y], the protein stability index was 3.3.
Variant KAASLARNLAKRRRTYLAGAAGRS [G18A] has a protein stability index of 2.25.
For KAASLARNLAKRRRTYLEGAAGRS [G18E], the protein stability index was 2.45.
KAASLARNLAKRRRTYLFGAAGRS [G18F] gave a protein stability index of 1.78.
KAASLARNLAKRRRTYLHGAAGRS [G18H] gave a protein stability index of 3.07.
Work on KAASLARNLAKRRRTYLIGAAGRS [G18I] yielded a protein stability index of 2.86.
KAASLARNLAKRRRTYLKGAAGRS [G18K] gave a protein stability index of 2.35.
KAASLARNLAKRRRTYLLGAAGRS [G18L] showed a protein stability index of 2.32.
KAASLARNLAKRRRTYLMGAAGRS [G18M] gave a protein stability index of 2.5.
KAASLARNLAKRRRTYLSGAAGRS [G18S] gave a protein stability index of 1.69.
With KAASLARNLAKRRRTYLTGAAGRS [G18T] the protein stability index was 1.97.
In the case of KAASLARNLAKRRRTYLVGAAGRS [G18V], the protein stability index is reported as 2.36.
Work on KAASLARNLAKRRRTYLYGAAGRS [G18Y] yielded a protein stability index of 3.11.
For KAASLARNLAKRRRTYLGAAAGRS [G19A], the protein stability index was 2.32.
Work on KAASLARNLAKRRRTYLGCAAGRS [G19C] yielded a protein stability index of 1.97.
For KAASLARNLAKRRRTYLGEAAGRS [G19E], the protein stability index was 2.13.
With KAASLARNLAKRRRTYLGFAAGRS [G19F] the protein stability index was 2.03.
KAASLARNLAKRRRTYLGHAAGRS [G19H] showed a protein stability index of 2.59.
For KAASLARNLAKRRRTYLGIAAGRS [G19I], the protein stability index was 1.87.
With KAASLARNLAKRRRTYLGNAAGRS [G19N] the protein stability index was 2.68.
KAASLARNLAKRRRTYLGPAAGRS [G19P] showed a protein stability index of 1.46.
In the case of KAASLARNLAKRRRTYLGQAAGRS [G19Q], the protein stability index is reported as 3.22.
Work on KAASLARNLAKRRRTYLGRAAGRS [G19R] yielded a protein stability index of 2.93.
Variant KAASLARNLAKRRRTYLGSAAGRS [G19S] has a protein stability index of 3.14.
For KAASLARNLAKRRRTYLGTAAGRS [G19T], the protein stability index was 2.38.
For KAASLARNLAKRRRTYLGWAAGRS [G19W], the protein stability index was 1.67.
In the case of KAASLARNLAKRRRTYLGGDAGRS [A20D], the protein stability index is reported as 3.98.
KAASLARNLAKRRRTYLGGEAGRS [A20E] gave a protein stability index of 2.45.
KAASLARNLAKRRRTYLGGGAGRS [A20G] gave a protein stability index of 3.39.
In the case of KAASLARNLAKRRRTYLGGHAGRS [A20H], the protein stability index is reported as 2.59.
Work on KAASLARNLAKRRRTYLGGMAGRS [A20M] yielded a protein stability index of 2.42.
With KAASLARNLAKRRRTYLGGRAGRS [A20R] the protein stability index was 2.98.
Work on KAASLARNLAKRRRTYLGGSAGRS [A20S] yielded a protein stability index of 1.72.
For KAASLARNLAKRRRTYLGGTAGRS [A20T], the protein stability index was 2.35.
In the case of KAASLARNLAKRRRTYLGGVAGRS [A20V], the protein stability index is reported as 2.6.
KAASLARNLAKRRRTYLGGWAGRS [A20W] showed a protein stability index of 2.48.
KAASLARNLAKRRRTYLGGADGRS [A21D] showed a protein stability index of 2.69.
KAASLARNLAKRRRTYLGGAEGRS [A21E] gave a protein stability index of 3.14.
For KAASLARNLAKRRRTYLGGAIGRS [A21I], the protein stability index was 1.91.
KAASLARNLAKRRRTYLGGAKGRS [A21K] gave a protein stability index of 3.2.
KAASLARNLAKRRRTYLGGAPGRS [A21P] gave a protein stability index of 2.68.
Work on KAASLARNLAKRRRTYLGGARGRS [A21R] yielded a protein stability index of 1.71.
In the case of KAASLARNLAKRRRTYLGGAVGRS [A21V], the protein stability index is reported as 2.25.
KAASLARNLAKRRRTYLGGAWGRS [A21W] showed a protein stability index of 1.7.
With KAASLARNLAKRRRTYLGGAADRS [G22D] the protein stability index was 2.03.
